# Measured values published in patent US20210347882A1 (Johns Hopkins, published 2021).
# Residue numbers refer to the chain shown, from its start.
# T1: human Resistin-Like Molecule Beta (human, UniProt Q9BQ08 24-111, limits assumed)
# T1 construct: also called hRELMβ; RELMβ
# T1 sequence (looked up): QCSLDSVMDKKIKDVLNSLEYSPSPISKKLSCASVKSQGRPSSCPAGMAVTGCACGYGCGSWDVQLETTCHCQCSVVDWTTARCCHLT
# T2: human Resistin (human, UniProt Q9HD89 19-108)
# T2 construct: The sandwich ELISA used the R&D kit standard; also called hResistin; huRes
# T2 sequence (looked up): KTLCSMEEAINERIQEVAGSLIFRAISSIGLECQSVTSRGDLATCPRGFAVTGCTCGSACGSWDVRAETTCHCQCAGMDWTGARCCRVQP
# B1: Clone 1 rIgG (antibody, V domains shown)
# VH: EVQLLESGGGLVQPGGSLRLSCAASGFTFSSYAMSWVRQAPGKGLEWVSSISQRGRKTLYADSVKGRFTISRDNSKNTLYLQMNSLRAEDTAVYYCAKGLRRFDYWGQGTLVTVSS
# VL: DIQMTQSPSSLSASVGDRVTITCRASQSISSYLNWYQQKPGKAPKLLIYMASHLQSGVPSRFSGSGSGTDFTLTISSLQPEDFATYYCQQPRSTPLTFGQGTKVEIKR
# notes: Fully human IgG1 converted from scFv, tested as supernatant of expressing cells; Possibly the same clone as Ab1
# B2: Clone 18 rIgG (antibody, V domains shown)
# VH: B1 VH with S50T, S52H, Q53K, R54T, R56S, K57P, L59Y, G99S, R101K, R102Y
# VL: B1 VL with M50R, T94L, L96A
# notes: Fully human IgG1 converted from scFv, tested as supernatant of expressing cells
# B3: Clone 2 rIgG (antibody, V domains shown)
# VH: B1 VH with S50T, S52T, Q53T, R54T, R56T, K57A, L59W, G99T, R101Q
# VL: B1 VL with M50E, H53V, T94L, L96M
# notes: as for B2
# B4: Clone 13 rIgG (antibody, V domains shown)
# VH: B1 VH with S52Y, Q53P, R54Q, R56L, K57R, L59Y, G99N, R101A, R102K
# VL: B1 VL with M50R, H53T, S93A, T94L, L96G
# notes: Fully human IgG1 converted from scFv, tested as supernatant of expressing cells; Possibly the same clone as Ab13
# Target: T1, human Resistin-Like Molecule Beta
# Assay: QC ELISA, hRELMβ coated 0.5 µg/well, IgG supernatant, FITC-goat anti-human IgG
# Procedure: (§1) As a result, 4 IgGs (Clones 1, 2, 13 and 18) bind to two targets positively. hRELMβ: 0.5 μg/well; hResistin: 5 μg/well; secondary antibody: FITC-goat anti-human IgG pAb.
row,binding result,Binder
1,binds,B1
2,binds,B2
3,binds,B3
4,binds,B4

# Target: T2, human Resistin
# Assay: QC ELISA, hResistin coated 5 µg/well, IgG supernatant, FITC-goat anti-human IgG
# Procedure: as §1
row,binding result,Binder
1,binds,B1
2,binds,B2
3,binds,B3
4,binds,B4
